Five molecules from patent publication US20070161569A1 (GENERAL HOSPITAL, published 2007) can be followed below.

Non-standard residues stand in square brackets, D forms with d. No end group written: not given here. hArg = N=C(N)NCCCC[C@H](N)C(=O)O; Ac5c = NC1(C(=O)O)CCCC1; Deg = CCC(N)(CC)C(=O)O; Ac3c = NC1(C(=O)O)CC1; Aib = CC(C)(N)C(=O)O

For assay [1], the target named is T1, recombinant P1R chimera expressed in HKRK-B28 cells (opossum P1R from the N-terminus to the mid region of … (opossum; rat, UniProt P25107 27-288; P25961 295-591, limits assumed). The experiment in a line: cell-based or functional assay.
The target of assay [2] is T2, wild-type human P1R transiently expressed in COS-7 cells (human, UniProt Q03431 27-593).
T2 sequence (looked up): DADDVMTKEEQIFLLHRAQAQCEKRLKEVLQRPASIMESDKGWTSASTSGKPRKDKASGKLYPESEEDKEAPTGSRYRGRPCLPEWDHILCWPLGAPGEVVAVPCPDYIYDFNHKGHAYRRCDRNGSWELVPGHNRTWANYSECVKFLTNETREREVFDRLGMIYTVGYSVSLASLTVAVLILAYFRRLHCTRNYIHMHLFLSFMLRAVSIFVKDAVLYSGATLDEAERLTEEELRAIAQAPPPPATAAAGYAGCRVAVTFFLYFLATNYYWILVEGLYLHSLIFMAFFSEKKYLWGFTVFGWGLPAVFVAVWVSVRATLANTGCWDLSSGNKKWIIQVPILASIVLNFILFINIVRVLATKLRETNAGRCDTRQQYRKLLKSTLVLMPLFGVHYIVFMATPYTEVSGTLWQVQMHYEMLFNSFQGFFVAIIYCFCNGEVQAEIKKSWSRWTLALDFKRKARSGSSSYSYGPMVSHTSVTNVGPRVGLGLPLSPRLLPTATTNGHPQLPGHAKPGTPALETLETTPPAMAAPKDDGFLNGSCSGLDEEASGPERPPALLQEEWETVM
The experiment in a line: cell-based or functional assay.

Assay [3] deals with T3, P1R-delNt, a recombinant human PTH-1 receptor construct in which most of the amino-terminal extracellular … (human, UniProt Q03431 23-593, limits assumed).
T3 sequence (looked up): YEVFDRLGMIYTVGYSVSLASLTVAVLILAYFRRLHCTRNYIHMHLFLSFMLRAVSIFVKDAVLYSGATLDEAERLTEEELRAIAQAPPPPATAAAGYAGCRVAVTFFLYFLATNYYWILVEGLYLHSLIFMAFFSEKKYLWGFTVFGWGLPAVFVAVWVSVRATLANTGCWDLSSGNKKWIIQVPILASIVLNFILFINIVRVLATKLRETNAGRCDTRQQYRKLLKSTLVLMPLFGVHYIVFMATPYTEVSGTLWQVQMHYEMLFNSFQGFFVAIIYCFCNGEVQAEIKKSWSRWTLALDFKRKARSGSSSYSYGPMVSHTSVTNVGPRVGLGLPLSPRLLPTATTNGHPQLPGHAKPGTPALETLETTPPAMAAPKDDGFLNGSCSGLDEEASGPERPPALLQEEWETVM
Kind of assay: cell-based or functional assay.

For assay [4], the target named is T1, recombinant P1R chimera expressed in …. The experiment in a line: competition binding on B28 cells against 125I-PTH(1-21) tracer (SEQ ID NO 36). Here is the method:
(§1) Competition Binding. Binding reactions were performed with HKRK-B28 cells or in COS-7 cells in 24-well plates. The cells were rinsed with 0.5 mL of binding buffer, and then treated successively with 100 μL binding buffer, 100 μL of binding buffer containing various amounts of unlabeled competitor ligand, and 100 μL of binding buffer containing ca. 100,000 cpm of ¹²⁵I-[Aib^{1,3},Nle⁸,Gln¹⁰,Har¹¹,Ala¹²,Trp¹⁴,Arg¹⁹,Tyr²¹]rPTH(1-21) (SEQ. ID. NO. 36) (ca. 26 fmol; final volume=300 μL). Incubations were 4 to 6 h at 4° C., at which time near equilibrium conditions were attained. Cells were then placed on ice, the binding medium was removed, and the monolayer was rinsed three times with 0.5 mL of cold binding buffer. The cells were subsequently lysed with 0.5 mL 5N NaOH and counted for radioactivity. For each tracer and in each experiment, the non-specific binding was determined as the radioactivity that bound in the presence of the same unlabeled peptide at a concentration of 1 μM, and was ˜1% of total radioactivity added for each tracer. The maximum specific binding (B₀) was the total radioactivity bound in the absence of competing ligand, corrected for nonspecific binding, and for each tracer, ranged from 8% to 20% of the total radioactivity added. Nonlinear regression was used to calculate binding IC₅₀ values (see below). Scatchard transformations of homologous competition binding data derived from studies with 26 fmol of ¹²⁵I-[Aib^{1,3},Nle⁸,Gln¹⁰,Har¹¹,Ala¹²,Trp¹⁴, Arg¹⁹,Tyr²¹]rPTH(1-21) (SEQ. ID. NO. 36) were employed for estimations of apparent equilibrium dissociation constant (kDapps) and total number of ligand binding sites (Bₘₐₓ), assuming a single class of binding sites and equal affinities of the iodinated and non iodinated ligand.

Assay [5] has the same target. Kind of assay: competition binding to the P1R (HKRK-B28 cells by the FIG. 3 legend). Here is the method: as §1, with “Scatchard transformations of homologous competition binding data derived from studies with 26 fmol of ¹²⁵I-[Aib^{1,3},Nle⁸,Gln¹⁰,Har¹¹,Ala¹²,Trp¹⁴, Arg¹⁹,Tyr²¹]rPTH(1-21) (SEQ. ID. NO. 36) were employed for estimations of apparent equilibrium dissociation constant (kDapps) and total number of ligand binding sites (Bₘₐₓ), assuming a single class of binding sites and equal affinities of the iodinated and non iodinated ligand.” left out

For assay [6] the target is unchanged. The experiment in a line: competition binding on HKRK-B28 cells against 125I-PTH(1-21) tracer (SEQ ID NO 36). Here is the method:
as §1, with “Incubations” for “Competition Binding. Binding reactions were performed with HKRK-B28 cells or in COS-7 cells in 24-well plates. The cells were rinsed with 0.5 mL of binding buffer, and then treated successively with 100 μL binding buffer, 100 μL of binding buffer containing various amounts of unlabeled competitor ligand, and 100 μL of binding buffer containing ca. 100,000 cpm of ¹²⁵I-[Aib^{1,3},Nle⁸,Gln¹⁰,Har¹¹,Ala¹²,Trp¹⁴,Arg¹⁹,Tyr²¹]rPTH(1-21) (SEQ. ID. NO. 36) (ca. 26 fmol; final volume=300 μL). Incubations”, “ligand. […]” for “ligand.”

T1 sequence (P25107 other isoform, or with tags, fused parts or gaps limits assumed): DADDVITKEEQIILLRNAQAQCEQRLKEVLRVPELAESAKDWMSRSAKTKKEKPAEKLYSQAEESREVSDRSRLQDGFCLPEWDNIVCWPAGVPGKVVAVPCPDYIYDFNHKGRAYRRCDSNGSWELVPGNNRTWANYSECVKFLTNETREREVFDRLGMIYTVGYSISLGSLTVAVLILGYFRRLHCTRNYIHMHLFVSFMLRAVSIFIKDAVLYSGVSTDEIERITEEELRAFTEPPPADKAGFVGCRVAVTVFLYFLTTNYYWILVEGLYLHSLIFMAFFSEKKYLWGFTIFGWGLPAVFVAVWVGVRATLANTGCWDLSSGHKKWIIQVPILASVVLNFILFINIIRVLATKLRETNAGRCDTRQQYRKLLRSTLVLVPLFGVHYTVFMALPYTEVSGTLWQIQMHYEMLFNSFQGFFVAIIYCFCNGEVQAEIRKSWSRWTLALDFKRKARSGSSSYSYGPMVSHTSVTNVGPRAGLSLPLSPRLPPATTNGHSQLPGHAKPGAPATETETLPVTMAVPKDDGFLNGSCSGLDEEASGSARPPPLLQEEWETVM

A word on the IC50: it is the concentration needed to halve the response being measured. Consider [Ac5c]V[Aib]EIQLMHQ[hArg]AKW-NH2 (also called [Ac5c^1,Aib^3,M]PTH(1-14)) [[Ac5c^1,Aib^3,Gln^10,Har^11,Ala^12,Trp^14]PTH(1-14)NH2], for which, in assay [1], the “cAMP potency (EC50)” value was found to be 0.9 nM; the “increase in cAMP levels relative to basal, peptide at 10 nM, HKRK-B28 cells” value was determined as 38 fold; the “stimulating adenylyl cyclase, fold more potent than [Aib^1,3,M]PTH(1-14)” value is 2 fold. The “stimulating phospholipase C, fold more potent than [Aib^1,3,M]PTH(1-14)” value in assay [2] turned out to be 2 fold. In assay [3], the “cAMP EC50 in LdelNt-2 cells” value stood at 6.4 nM and the “increase in cAMP accumulation in LdelNt-2 cells” value turned out to be 70 fold. For the same molecule, in assay [4], the IC50 amounted to 100 nM and the “fold more potent than [Aib^1,3,M]PTH(1-14) for inhibiting tracer binding” value is 2 fold.

B1: [Deg^1,3,Gln^10,Har^11,Ala^12,Trp^14]PTH(1-14)NH2 (peptide)
peptide: [Deg]V[Deg]EIQLMHQ[hArg]AKW-NH2
modifications: N-terminus assumed
SMILES: CC[C@H](C)[C@H](NC(=O)[C@H](CCC(=O)O)NC(=O)C(CC)(CC)NC(=O)[C@@H](NC(=O)C(N)(CC)CC)C(C)C)C(=O)N[C@@H](CCC(N)=O)C(=O)N[C@@H](CC(C)C)C(=O)N[C@@H](CCSC)C(=O)N[C@@H](Cc1c[nH]cn1)C(=O)N[C@@H](CCC(N)=O)C(=O)N[C@@H](CCCCNC(=N)N)C(=O)N[C@@H](C)C(=O)N[C@@H](CCCCN)C(=O)N[C@@H](Cc1c[nH]c2ccccc12)C(N)=O
notes: also called [Deg^1,3,M]PTH(1-14)
As to B1, in assay [5], the “fold higher affinity than the parent peptide” value was determined as 50 fold. In addition, in assay [3], the “cAMP EC50 in LdelNt-2 cells” value amounted to 1400 nM and the “cAMP Emax over basal in LdelNt-2 cells (partial agonist behavior)” value turned out to be 23 fold.
In the case of [Ac5c]V[Ac5c]EIQLMHQ[hArg]AKW-NH2 (also called [Ac5c^1,3,M]PTH(1-14)) [[Ac5c^1,3,Gln^10,Har^11,Ala^12,Trp^14]PTH(1-14)NH2], the “fold higher affinity than the parent peptide” value in assay [5] amounted to 20 fold. Besides, the “cAMP signaling, fold more potent than the parent peptide” value in assay [1] worked out at 30 fold.

B2: [M]PTH(1-14) analog in which alanine-3 is substituted with 1-aminocyclopropane-1-carboxylic acid (Ac3c) (peptide)
peptide: AV[Ac3c]EIQLMHQ[hArg]AKW-NH2
modifications: N-terminus assumed
SMILES: CC[C@H](C)[C@H](NC(=O)[C@H](CCC(=O)O)NC(=O)C1(NC(=O)[C@@H](NC(=O)[C@H](C)N)C(C)C)CC1)C(=O)N[C@@H](CCC(N)=O)C(=O)N[C@@H](CC(C)C)C(=O)N[C@@H](CCSC)C(=O)N[C@@H](Cc1c[nH]cn1)C(=O)N[C@@H](CCC(N)=O)C(=O)N[C@@H](CCCCNC(=N)N)C(=O)N[C@@H](C)C(=O)N[C@@H](CCCCN)C(=O)N[C@@H](Cc1c[nH]c2ccccc12)C(N)=O
notes: also called Ac3c^3-containing analog; Ac3c-3
B2: the “fold reduced affinity relative to the parent analog” value in assay [6] is around 10 fold. For the same molecule, the “cAMP-stimulating potency, fold increase over the parent analog” value in assay [1] was below 2 fold. In addition, in assay [4], the “fold lower affinity than [M]PTH(1-14)” value worked out at 14 fold.

B3: [Ala^1,3,12,Gln^10,Har^11,Trp^14]PTH(1-14)NH2 (peptide)
peptide: AVAEIQLMHQ[hArg]AKW-NH2
modifications: N-terminus assumed
SMILES: CC[C@H](C)[C@H](NC(=O)[C@H](CCC(=O)O)NC(=O)[C@H](C)NC(=O)[C@@H](NC(=O)[C@H](C)N)C(C)C)C(=O)N[C@@H](CCC(N)=O)C(=O)N[C@@H](CC(C)C)C(=O)N[C@@H](CCSC)C(=O)N[C@@H](Cc1c[nH]cn1)C(=O)N[C@@H](CCC(N)=O)C(=O)N[C@@H](CCCCNC(=N)N)C(=O)N[C@@H](C)C(=O)N[C@@H](CCCCN)C(=O)N[C@@H](Cc1c[nH]c2ccccc12)C(N)=O
notes: also called [M]PTH(1-14); parent
As to B3, the IC50 in assay [6] was 27 µM. For the same molecule, in assay [1], the “cAMP accumulation potency (EC50) in HKRK-B28 cells” value was determined as 220 nM and the “cAMP potency (EC50)” value was found to be 200 nM. Moreover, the IC50 in assay [4] is around 3000 nM.
